The source of these data is PMC8809517, “Cofactor-independent RNA editing by a synthetic S-type PPR protein”.

Assay in all cases: high-throughput RNA pulldown from lysate on Ni-NTA beads; HRP: 50 mM Tris pH 8, 150 mM NaCl, 1 mM beta-mercaptoethanol, 50 ug/ml BSA, 3 ug/ml yeast RNA, 0.5% heparin; ITC and FP: Tris pH 8, 200 mM KCl, 5% glycerol; MST: 50 mM Tris pH 8, 200 mM NaCl, 1 mM DTT, BSA, heparin, 0.05% Tween 20
What all share (conditions): tags: N-terminal His-eGFP

Series [1] addresses T1, GFP-9S library array, motif 4 ND N98V;D124I (synthetic construct, N98V;D124I).
T1 chain: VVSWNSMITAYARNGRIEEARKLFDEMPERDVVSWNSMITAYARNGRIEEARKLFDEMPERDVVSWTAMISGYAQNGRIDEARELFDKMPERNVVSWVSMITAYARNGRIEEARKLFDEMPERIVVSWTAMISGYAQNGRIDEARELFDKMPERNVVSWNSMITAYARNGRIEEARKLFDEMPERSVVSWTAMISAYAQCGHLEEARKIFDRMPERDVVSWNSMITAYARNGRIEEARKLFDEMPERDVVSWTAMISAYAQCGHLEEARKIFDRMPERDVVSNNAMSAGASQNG

Series [2] addresses T2, GFP-9S library array, motif 4 ND N98K;D124K (synthetic construct, N98K;D124K).
T2 chain: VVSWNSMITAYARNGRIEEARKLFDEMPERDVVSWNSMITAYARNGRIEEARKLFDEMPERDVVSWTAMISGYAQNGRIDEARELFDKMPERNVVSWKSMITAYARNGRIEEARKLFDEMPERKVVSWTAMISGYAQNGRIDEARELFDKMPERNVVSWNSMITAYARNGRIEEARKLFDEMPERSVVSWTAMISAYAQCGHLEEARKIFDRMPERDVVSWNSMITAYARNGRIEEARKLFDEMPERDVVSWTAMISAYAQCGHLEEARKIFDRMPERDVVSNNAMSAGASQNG

Series [3] addresses T3, GFP-9S library array, motif 4 ND N98G;D124I (synthetic construct, N98G;D124I).
T3 chain: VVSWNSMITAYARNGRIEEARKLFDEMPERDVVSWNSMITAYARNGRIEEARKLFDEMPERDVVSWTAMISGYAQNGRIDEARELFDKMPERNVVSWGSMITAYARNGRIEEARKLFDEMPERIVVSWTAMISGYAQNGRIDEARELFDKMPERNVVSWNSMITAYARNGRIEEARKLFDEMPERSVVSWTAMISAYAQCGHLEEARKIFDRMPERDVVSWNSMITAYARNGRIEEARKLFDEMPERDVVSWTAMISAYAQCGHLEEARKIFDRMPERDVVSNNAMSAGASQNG

Series [4] addresses T4, GFP-9S library array, motif 4 ND N98T;D124N (synthetic construct, N98T;D124N).
T4 chain: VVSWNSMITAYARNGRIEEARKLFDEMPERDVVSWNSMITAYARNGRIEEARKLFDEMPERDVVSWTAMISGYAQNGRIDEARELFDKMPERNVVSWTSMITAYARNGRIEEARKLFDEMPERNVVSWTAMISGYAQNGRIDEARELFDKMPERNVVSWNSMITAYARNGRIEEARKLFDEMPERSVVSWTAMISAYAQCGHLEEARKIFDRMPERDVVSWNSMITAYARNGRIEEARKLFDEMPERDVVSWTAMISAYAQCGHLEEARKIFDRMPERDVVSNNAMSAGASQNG

Series [5] addresses T5, GFP-9S library array, motif 4 ND N98P;D124Y (synthetic construct, N98P;D124Y).
T5 chain: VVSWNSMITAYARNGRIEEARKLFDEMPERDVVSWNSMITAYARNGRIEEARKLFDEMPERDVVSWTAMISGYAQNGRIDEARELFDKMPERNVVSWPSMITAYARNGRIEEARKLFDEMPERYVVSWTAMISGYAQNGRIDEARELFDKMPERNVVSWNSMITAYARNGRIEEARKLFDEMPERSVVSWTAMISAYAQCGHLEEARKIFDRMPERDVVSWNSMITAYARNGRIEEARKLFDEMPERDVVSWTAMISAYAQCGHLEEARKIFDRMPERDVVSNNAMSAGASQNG

B1: Cy5-rpoA (ssRNA)
RNA: AUUACACGUGA
B1: the Kd (in general, the equilibrium constant for the complex coming apart) in series [1] (label: 5' Cy5) was found to be 0.121 µM; in series [2] (label: 5' Cy5), 0.102 µM; in series [3] (label: 5' Cy5), 0.105 µM; in series [4] (label: 5' Cy5), 0.0598 µM; in series [5] (label: 5' Cy5), 0.146 µM.

B2: IR-rpoA-A (ssRNA)
RNA: AUUAAACGUGA
B2: the Kd in series [1] (label: 5' IRDye 800CW) is 0.384 µM; in series [2] (label: 5' IRDye 800CW) it was 0.254 µM; in series [3] (label: 5' IRDye 800CW) it was 0.315 µM; in series [4] (label: 5' IRDye 800CW), 0.00835 µM; in series [5] (label: 5' IRDye 800CW) it was 0.416 µM.

B3: Cy5-rpoA-G (ssRNA)
RNA: AUUAGACGUGA
As for B3, the Kd in series [1] (label: 5' Cy5) was found to be 0.163 µM; in series [2] (label: 5' Cy5) it was 0.119 µM; in series [3] (label: 5' Cy5), 0.113 µM; in series [4] (label: 5' Cy5) it was 0.059 µM; in series [5] (label: 5' Cy5), 0.168 µM.

B4: IR-rpoA-U (ssRNA)
RNA: AUUAUACGUGA
As for B4, the Kd in series [1] (label: 5' IRDye 800CW) was determined as 0.205 µM; in series [2] (label: 5' IRDye 800CW) it was 0.0838 µM; in series [3] (label: 5' IRDye 800CW), 0.205 µM; in series [4] (label: 5' IRDye 800CW) it was 0.0533 µM; in series [5] (label: 5' IRDye 800CW), 0.299 µM.
